# Assay results taken from US20200370067.
# Assays:
# [1] = test system: SHS231 left TALEN (synthetic); test: cell_activity; conditions: as pair with right TALEN; 1/81 clones, 293T
# [2] = test system: SHS231 right TALEN (synthetic); test: cell_activity; conditions: as pair with left TALEN; 1/81 clones, 293T
Sequence,activity (% targeted integration) [1],activity (% targeted integration) [2]
TTGGCTAGGGCTAAGGATTA (double strand) [SHS231 left TALEN half-site],1.23,–
TGTATGCTTTCCTCTTGTTA (double strand) [SHS231 right TALEN half-site],–,1.23
